Earlier results on one substance are cited in publication PMC2679154.

As a reminder, the Kd is the constant that tells how readily two partners part at equilibrium.

This data set concerns the target IGF-IR (Homo sapiens) (UniProt P08069).
UniProt P08069, sequence (P08069 31-736, chain 1 of 2): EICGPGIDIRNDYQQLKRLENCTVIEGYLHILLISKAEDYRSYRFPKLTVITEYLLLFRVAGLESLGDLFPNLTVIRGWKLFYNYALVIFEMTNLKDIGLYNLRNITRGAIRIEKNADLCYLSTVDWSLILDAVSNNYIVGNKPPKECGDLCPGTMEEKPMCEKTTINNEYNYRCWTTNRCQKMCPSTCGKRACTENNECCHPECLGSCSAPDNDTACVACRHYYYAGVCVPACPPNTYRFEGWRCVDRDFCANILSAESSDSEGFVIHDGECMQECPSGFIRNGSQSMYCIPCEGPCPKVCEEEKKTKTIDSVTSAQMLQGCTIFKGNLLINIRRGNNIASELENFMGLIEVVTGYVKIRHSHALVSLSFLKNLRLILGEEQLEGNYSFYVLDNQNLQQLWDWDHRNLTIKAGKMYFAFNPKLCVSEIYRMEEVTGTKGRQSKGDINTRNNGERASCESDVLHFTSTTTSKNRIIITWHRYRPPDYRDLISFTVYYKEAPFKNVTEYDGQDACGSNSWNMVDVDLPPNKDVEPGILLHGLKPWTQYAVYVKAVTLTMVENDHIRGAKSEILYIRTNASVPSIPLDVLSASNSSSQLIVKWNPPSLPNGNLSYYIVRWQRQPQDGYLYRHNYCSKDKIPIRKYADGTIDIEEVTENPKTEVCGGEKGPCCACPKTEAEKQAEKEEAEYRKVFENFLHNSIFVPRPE
UniProt P08069, sequence (P08069 741-935, chain 2 of 2): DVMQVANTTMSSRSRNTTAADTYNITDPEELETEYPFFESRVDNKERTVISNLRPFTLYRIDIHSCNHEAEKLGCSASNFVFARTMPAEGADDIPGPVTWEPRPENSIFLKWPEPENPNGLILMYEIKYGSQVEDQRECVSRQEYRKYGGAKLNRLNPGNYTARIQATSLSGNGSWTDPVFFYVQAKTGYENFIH

As for insulin (from UniProt P01308), the equilibrium dissociation constant (Kd) was 100 nM.
